This experiment deals with T1, HA-Pop1p/His-Myc-Pop2p complexes (S. pombe, UniProt P87060 1-775; O14170 1-703).
T1 sequence 1: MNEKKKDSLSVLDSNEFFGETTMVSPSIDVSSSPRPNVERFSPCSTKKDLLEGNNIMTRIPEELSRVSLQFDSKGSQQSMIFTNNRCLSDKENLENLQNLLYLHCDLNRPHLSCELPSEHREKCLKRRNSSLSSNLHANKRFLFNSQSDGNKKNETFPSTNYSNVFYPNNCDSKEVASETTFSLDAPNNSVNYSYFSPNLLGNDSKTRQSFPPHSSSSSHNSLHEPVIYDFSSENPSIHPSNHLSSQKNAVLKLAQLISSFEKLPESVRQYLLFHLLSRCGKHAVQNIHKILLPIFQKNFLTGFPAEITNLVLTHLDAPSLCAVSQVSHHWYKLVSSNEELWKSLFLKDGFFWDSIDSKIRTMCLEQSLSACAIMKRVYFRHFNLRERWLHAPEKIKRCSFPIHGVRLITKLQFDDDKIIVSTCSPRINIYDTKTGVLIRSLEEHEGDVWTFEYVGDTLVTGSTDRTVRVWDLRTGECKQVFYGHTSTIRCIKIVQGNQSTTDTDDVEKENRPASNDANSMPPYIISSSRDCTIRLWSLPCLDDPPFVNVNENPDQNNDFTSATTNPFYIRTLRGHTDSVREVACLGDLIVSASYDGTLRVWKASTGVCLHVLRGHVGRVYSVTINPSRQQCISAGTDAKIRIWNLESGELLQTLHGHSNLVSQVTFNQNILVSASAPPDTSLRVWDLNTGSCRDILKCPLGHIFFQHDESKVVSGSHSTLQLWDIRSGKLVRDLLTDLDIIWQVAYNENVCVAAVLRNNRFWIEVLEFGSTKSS
T1 sequence 2: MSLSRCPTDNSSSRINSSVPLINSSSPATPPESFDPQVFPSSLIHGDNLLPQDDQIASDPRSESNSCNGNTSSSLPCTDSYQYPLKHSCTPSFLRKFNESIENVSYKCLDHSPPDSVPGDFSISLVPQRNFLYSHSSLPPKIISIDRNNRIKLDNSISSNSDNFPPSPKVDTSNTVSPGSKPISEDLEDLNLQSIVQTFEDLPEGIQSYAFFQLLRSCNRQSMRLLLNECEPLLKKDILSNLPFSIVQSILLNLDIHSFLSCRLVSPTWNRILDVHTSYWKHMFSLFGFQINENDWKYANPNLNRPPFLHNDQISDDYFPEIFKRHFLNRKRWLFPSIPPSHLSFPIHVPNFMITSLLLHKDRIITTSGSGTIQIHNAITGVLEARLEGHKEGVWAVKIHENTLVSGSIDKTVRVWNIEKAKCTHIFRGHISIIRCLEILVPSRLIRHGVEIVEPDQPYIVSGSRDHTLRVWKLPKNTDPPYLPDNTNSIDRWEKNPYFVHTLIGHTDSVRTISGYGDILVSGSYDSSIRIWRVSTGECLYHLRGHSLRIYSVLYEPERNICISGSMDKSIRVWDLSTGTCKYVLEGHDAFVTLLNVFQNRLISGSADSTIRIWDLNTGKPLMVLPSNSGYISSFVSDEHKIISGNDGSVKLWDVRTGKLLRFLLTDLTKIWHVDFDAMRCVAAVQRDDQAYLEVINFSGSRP
As to the kind of experiment: pull-down.

B1: bacterially expressed, phosphorylated Rum1p (natural protein)
chain: MEPSTPPMRGLCTPSTPESPGSFKGVIDASLEGNSSIMIDEIPESDLPAPQVSTFPPTPAKTPKKQLLPNLMLQDRSNSLERCMEEDREHNPFLSSSDNQLLSRKKRKPTPPPSDGLYYVFRGKRIKKSFRPGTDLSTFKPKLLFADSAPSSSSDNPTSSVDLNDYSQIGILPPNLNSIGNKMFSLKSRVPSSSSGSFVAPPPQMRLPAYSSPQKSRSNTKDENRHNLLR
modifications: phosphorylated by Cdc2p/Cig1p complexes with radiolabeled ATP; residues not stated for this preparation
As to B1, the binding result is “binds”.

Source of the values: PMC128837 (BMC Biochemistry, 2002).
